Data from US20100144607 (published 2010).
Bridge positions count the residues as written; N and C are the ends. Ends that are not written are not given here.

These binders were tested against trypsin (assay: other, trypsin inhibition).
For IPRCRKMPGVKMC (disulfide 4-13; not fully specified) [Seq08], the Ki was 24.8 nM.
Work on VQQCSEIAGAKPC (disulfide 4-13) [Seq04] yielded a Ki of 42 nM.
LHRCDKIADAKPC (disulfide 4-13) [Seq05] was tested, and the Ki was 44 nM.
For IPRCRKMPGVKMC (disulfide 4-13) [Seq01], the Ki was 22.5 nM.
Binder VEQCTIIGDEKDC (disulfide 4-13) [Seq02] has a Ki of 24 nM.
With VEQCTIIGDAKDC (disulfide 4-13) [Seq03] the Ki was 63.6 nM.
Binder IPRCRKMPGVKMC (disulfide 4-13; not fully specified) [Seq09] has a Ki of 21.8 nM.
Binder IPRCRAMPGVKMC (disulfide 4-13) [Seq06] has a Ki of 24.2 nM.
Work on IPRCRKMPGVKMC (disulfide 4-13; not fully specified) [Seq07] yielded a Ki of 20 nM.
